In patent US20210032351A1 (XDCEXPLORER SHANGHAI, published 2021):
Where a chain is given by its changes, count along the chain named.

B1: Humanized antibody h75G7C6-9 (antibody, human IgG1, V domains shown)
VH: QVQLVQSGAEVKKPGASVKVSCKASGYTFTDYNMDWVRQAPGQGLEWIGDINPNNADTIYNQKFKGRVTLTVDTSTSTVYMELSSLRSEDTAVYYCARGDYDGYYPVYYAMDYWGQGTTVTVSS
VL: EIVLTQSPATLSLSPGERATLSCRASSSVSSSYLHWYQQKPGQAPRLLIYSTSNLAAGIPARFSGSGSGTDFTLTISSLEPEDFAVYYCQQYSGYPLTFGGGTKVEIK
notes: Human IgG1 constant region, human kappa constant region
B2: Humanized antibody h75G7C6-13 (antibody, human IgG1, V domains shown)
VH: B1 VH with R38K, T74K
VL: B1 VL
notes: as for B1
B3: Chimeric antibody c75G7C6 (antibody, human IgG1, V domains shown)
VH: EVQLQQSGPELVKPGASVKIPCKASGYTFTDYNMDWVKQSHGKSLEWIGDINPNNGDTIYNQKFKGKATLTVDKSSSTAYMELRSLTSEDTAVYYCARGDYDGYYPVYYAMDYWGQGTSVTVSS
VL: ENVLTQSPAIMSASPGEKVTMTCRASSSVSSSYLHWYQQKSGASPKLWIFSTSNLAAGVPARFSGSGSGTSYSLTVSSVEAEDAATYYCQQYSGYPLTFGAGTKLELK
notes: also called chimeric antibody 75G7
B4: Murine anti-64B11-MMAF (antibody, V domains shown)
VH: EVQLQQSGAELVKPGASVKLSCTASGFNIKDYYMHWVKQRTEQGLEWIGRIDPEDGETKYAPKFQGKATITADTSSNTAYLQLSNLPSEDTAVYYCGCRTGGFAYWGQGTLVTVSA
VL: DILMTQSPSSMSVSLGDTVSITCHASQGINSNIGWLQQKPGKSFKALIYHGTNLEDGVPSRFSGSGSGADYSLTISSLESEDFADYYCVQYAQFPFTFGSGTELEIK
B5: Murine anti-56F10 (antibody, V domains shown)
VH: B4 VH with Y32F, N85S, P87T
VL: QIVLTQSPAIMSASPGEKVTMTCSASSSVSYLYWYQQKPGSSPSLLIYDTSNLASGVPVRFSGSGSGTSYSLTISRMEAEDAATYYCQQWSRNPWTFGGGTKLEIK
notes: Mouse hybridoma antibody; also called 56F10G2
B6: Murine anti-64B11 (antibody, V domains shown)
VH: B4 VH
VL: B4 VL
notes: Mouse hybridoma antibody; also called 64B11F2
B7: Murine anti-53D8 (antibody, V domains shown)
VH: QVQLQQSGAELARPGASVKMSCKASGYTFTSYTMHWVKQRPGQGLEWIGYINPSSGYTKYNQIFKDKATLTADKSSSTAYMQLSSLTSEDSAVYYCTRGGGRGFAYWGQGTLVTVSA
VL: B4 VL with G28D, A46G, E103K
notes: Mouse hybridoma antibody; also called 53D8H4
B8: Murine anti-49G12 (antibody, V domains shown)
VH: EVQLLQSGAELVKPGASVKLSCTASGFNIKDYYMHWVKQRTEQGLEWIGRIDPEDGETKYAPKFQGKATMTADTSSNTAYLQLSSLTSEDTAVYYCASSAYYGRNYWGQGTTLTVSS
VL: QIVLTQSPAIMSASPGEKVTLTCSASSSLSSSYLYWYQQKPGSSPKLWIYSTSNLASGVPARFSGSGSGTSYSLTISSMEAEDAASYFCHQWSSYPYTFGGGTKLEIK
notes: Mouse hybridoma antibody; also called 49G12G5
B9: Murine anti-51G7 (antibody, V domains shown)
VH: B8 VH with L5Q, Y32F, M34I, G66D, M70I, T71I, A100S, R104N
VL: B8 VL with L29V, S32N, Y95F
notes: Mouse hybridoma antibody; also called 51G7C2
B10: Murine anti-59G3 (antibody, V domains shown)
VH: DVQLQESGPGLVKPSQSLSLTCSVTGYSITSGYYWHWIRQFPENKLEWMGYISYDGSNIYNPSLKNRISITRDTSKNQFFLKLNSVTTEDTATYYCAINSDYALDYWGQGTSVTVSS
VL: B5 VL with L32M, S44R, R92S, N93Y, P94S, W95L, G99A, I105L
notes: Mouse hybridoma antibody; also called 59G3F12
B11: Murine anti-46C4 (antibody, V domains shown)
VH: EVHLQQSVAELVRPGASVKLSCTASGFNIKNTYMHWVKQRPEQGLEWIGRIDPANGNTKYAPKFQGKATITADTSSNTAYLQLSSLTSEDTAIYYCASDFDYWGQGTTLTVSS
VL: DVLMTQTPLSLPVSLGDQVSISCRSSQSIVNSNGNTHLEWYLQKPGQSPKVLIYKVSKRFSGVPDRFSGSGSGTDFTLKISRVEAEDLGVYYCFQGSHVPYTFGGGTKLEIK
notes: Mouse hybridoma antibody; also called 46C4A6

Target: T1, EGFRvIII-his (purchased from Sino Biological) (UniProt P00533 25-645)
T1 construct: Bought protein; also called EGFRvIII protein; not shown: his tag
Experiment: BLI (OctetRED), antibody on anti-human Fc (AHC) biosensor, EGFRvIII-his in solution
Source text: (§1) BLI technology involves: detecting the interaction of the molecules fixed on the sensor with the molecules in the solution, which results in that the biofilm thickness is increased, and the interference spectrum curve is shifted along the direction of increased wavelength, wherein the phase shift of light waves can be detected by workstation in real time, and analyzed to quantitatively obtain the changes in the number of molecules on the sensor surface and related concentration and kinetic data.

Kd | koff | kon | Binder
1.77 nM | 0.000175 s⁻¹ | 98900 M⁻¹ s⁻¹ | B1
1.45 nM | 0.000181 s⁻¹ | 125000 M⁻¹ s⁻¹ | B2
1.45 nM | 0.000132 s⁻¹ | 91400 M⁻¹ s⁻¹ | B3

Target: T2, human EGFRvIII protein on the surface of U87MG-hEGFRvIII cells (human, UniProt P00533 25-1210)
Experiment: cell-based or functional assay

Binder | IC50, cell killing of U87MG-hEGFRvIII cells (CellTiter-Glo)
B4 | 0.04 nM

Target: T3, wild-type human EGFR protein on the surface of cells (A431, HEB, U87MG) (human, UniProt P00533 25-1210)
T3 construct: whole, on cells; One molecule for all three cell lines; the cell line is named under assay; also called wild-type EGFR
Experiment: FACS on A431 cells
Procedure: (§2) The collected cells are suspended to 2×10⁶ cells/mL with an FACS buffer (HBSS+1% BSA, with the percentage being the mass percentage), added to a 96-well FACS reaction plate at 100 μL/well, then added with 100 μL/well of the purified EGFRvIII antibody (samples to be tested) obtained in example 2, and incubated on ice for 2 hours. The plate is centrifugally washed twice with the FACS buffer, added with 100 μL/well of a fluorescence (Alexa 488) labeled secondary antibody (purchased from Invitrogen), and then incubated on ice for 1 hour. The plate is centrifugally washed 3 times with the FACS buffer, added with 100 μL/well of a fixing solution [4% (v/v) paraformaldehyde] for suspending the cells, and centrifugally washed twice with the FACS buffer after 10 minutes. The cells are suspended in 100 μL of the FACS buffer, and the results are detected and analyzed by FACS (FACS Calibur, purchased from BD). Data analysis is performed by using the software (CellQuest) to obtain the mean fluorescence intensity (MFI) of the cells. Data is further analyzed by using the software (GraphPad Prism5) to perform data fitting and calculate EC50. […] A431 cells (human epidermal cell cancer cell lines) have a large amount of wild-type EGFR protein expressed on the surface thereof. […] U87MG cells (human glioma cell lines) have a small amount of wild-type EGFR protein expressed on the surface thereof, while HEB cells (human glioma cell lines) have a high level of wild-type EGFR protein expression on the surface thereof.

binding result | Binder
no binding | B5
no binding | B6
no binding | B7
no binding | B8
no binding | B9
no binding | B10
no binding | B11

Target: T4, EGFR-his (purchased from Sino Biological) (UniProt P00533 25-645)
T4 construct: Bought protein; also called EGFR protein; not shown: his tag
Experiment: BLI (OctetRED), antibody on anti-human Fc (AHC) biosensor, EGFR-his in solution
Source text: as §1

Kd | koff | kon | Binder
215 nM | 0.00435 s⁻¹ | 20200 M⁻¹ s⁻¹ | B1
211 nM | 0.00476 s⁻¹ | 22500 M⁻¹ s⁻¹ | B2
220 nM | 0.00362 s⁻¹ | 16500 M⁻¹ s⁻¹ | B3

Target: T2, human EGFRvIII protein on the surface …
Experiment: FACS on U87MG-hEGFRvIII cells
Procedure: as §2, with “The cells are washed twice with the HBSS buffer and are counted, and then the cells are diluted with the HBSS buffer to 2×10⁶ cells/ml, added with 1% goat serum blocking solution, with the percentage being the mass percentage, and incubated on ice for 30 minutes, and then centrifugally washed twice with the HBSS buffer. The collected” for “The collected”

EC50 | Binder
12.3 nM | B5
25.3 nM | B6
6.8 nM | B7
7.9 nM | B8
26.2 nM | B9
40.9 nM | B10
13.3 nM | B11
